Measurements reported in the nanobody polyreactivity screen of Harvey et al. (2022).

Experiment: yeast display, Sf9 membrane polyspecificity reagent, FACS + sequencing; frameworks hold sequencing errors
How it was run: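 Nanobodies from a synthetic yeast display library (Saccharomyces cerevisiae BJ5465), induced 36–48 hours with galactose, were stained 1 hour at 4 °C with 10% biotinylated, detergent-solubilized Sf9 membrane reagent, enriched on streptavidin microbeads, then FACS-sorted. Anti-HA (expression) and streptavidin (reagent binding) fluorescence set low and high (top ~1%) gates. Polyreactivity labels come from the gate of origin. Genes were colony-PCR amplified, MiSeq 2 × 250 sequenced and filtered by CDR length.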

Sequence | polyreactivity (PSR sort gate)
QVQLVESGGGLVQAGGSLRLSCAASGRIFSSYTMGWYRQAPGKERELVAAISWRGGSTYYADSVKGRFTISRDNAKNTVYLQMNSLKPEDTAVYYCAADSRSHPGDYWGQGTQVTVSS | low polyreactivity
QVQLVESGGGLVQAGGSLRLSCAASGGIFSGNDMGWYRQAPGKERELVATITYSGGTTYYADSVKGRFTISRDNAKNTVYLQMNSLKPEDTAVYYCAADEYGPHTFSPEYDSWGQGTQVTVSS | low polyreactivity
QVQLVESGGGLVQAGGSLRLSCAASGSTFPRNAMVWYIQAPGKERELVAAISRRGGSTYYADSVKGLFTISRDNAKNTVYLQMNSLKPEDTAVYYCAAATRYAIYGRYSRYDYWGQGTQVTVSS | high polyreactivity
QVQLVESGGGLVQAGGSLSLSWAASGSTFETNAMGWYRQAPGKERELVAVITRGGSTYSADSVKGRFTISRDNAKNTVFLQMNRLKPEDTAVYYCNTVKYVPINYIYAMDYWGQGTQVTVSS | low polyreactivity
QVQLVESAGGLVQAGGSLRLSCAASGRTFIGNAMGWYRQAPAKERELVAGISYRGGSTYYADSVKGRFSFSRDNAKNTVYLQMNSLKPEDTAVYYCAAPGRGGYYYWGQGTQVTVSS | high polyreactivity
QVQLVESGGGLVQAGGSLRLSCAASGIIFSDYAMGWYRQAPGKERELVAAISRNGGSTYYADSVKGRFTISRDNAKNTVYLHMTSLKPEDTAVYYCAATRRYRYNWGQGTQVSVSS | high polyreactivity
QVQLVESGGGLVQAGGSLRLSCAASGRIIGYYAMGWYRQAPGKERELVATINYSGGRTYYADSVKGRFTISRDNAKNTVYLQMNSLKPEDTAVYYCNARESGRGSHDDYWGHGTQVTVSS | high polyreactivity
QVQLVESGGGLVQAGGSLRLSCAATGLTVRYYTMGWYRQAPGKERELVASITIRGGSTYYADSVKGRFTISRDNAKNTVYLQMNSLKAEDTAVYYCNTRYGYSFGYWGQGTQVTVSS | high polyreactivity
QHQLVESGGGLVQAGGSLRLSCAASGRTSLDYAMGWYRQAPGKERELVSAIRSGGITNYADSVKGRFTISRDNAKNTVYLQLNSLKPEDTAVYYCAARVHRAYSTGSIVYYWGQGTQVNVSS | high polyreactivity
QVQLVESGGGLVQAGGSLRLSCAASGFTFYRYAMGWYRKAPGKERELVAAITRSGSRTYYADSVKGRFTISRDNAKNTVYLQMNSLKPEDTAVYYCKTDGGDHPTARYGYWGQGTQVTVSS | high polyreactivity
QVQLVESGGGLVQAGGSLRLSCAASGRTFDVYAMGWYRPAPGKERELVAAITSGGSTYYADSVKGRYTISRDNAKNTVFLLINSLKPEDTAVYYCATDVDKSLYDYWGQGTQVTVSS | low polyreactivity
QVQLVESGGGLVQAGGSLRLSCAASGRIFIYNDMGWYRQAPGKERELVAAITFIDDSTNYADSVKGRFTISRDNAKYSVYLQMNRLKPEDTAVYYCAARLYSSASGVRWIKFDYWGQGTQVTVSS | low polyreactivity
QVQLVESGGGLFQAGGSLRLSCAASGSTFWFNAMGWYRQAPGKERELVAAITSGDGTNYADSVKGRFTISRDNAKNTVYLQMNSLKPEVTAVYYCATVYADESGIEGYSWGQGTQVTVSS | low polyreactivity
QVQLVESGVGLVQAGGSLRLTCAASGRIFVRNAMGWYRQAPGKEMELVARITSSTGRTYYADSVKGRFTISRDNAKNTVYLQFTSLKPEDTAVYYCAVRYFYQFWAYDYWGKGTQVTVSS | high polyreactivity
QVQLVESGGGLVQAGGSLRLSCAASGSIFTNAMGWYRQAPGKETELVAAISYSGGSTYYADSVKGRFTISRDNAKNTVYLQMNSLKREDTAVYYCAAEAWFDGIWGDYWGQGTQVTVSS | high polyreactivity
QVQLVESGGGLVQAGGSLRLSCAASGFICGYYAMGWYRQAPGKERELVADISRGGNTNYAESVKGRFTISRDNAKNSVYLQMNSLKPEDTAVYYCARYRRGKMDYWGQGTQVTVSS | high polyreactivity
QVQLVESGGGLVQAGVSLRLSCDASGSILRENAMGWYRQAPGKERELVAVITRGGNTYYADSVKGRFTISRDNAKNTVYLQMNSLKPEDTAVYYCAAKRRERYGLTYGYWGQGTQVTVSS | high polyreactivity
QVQLVESGGGLVQAGGSLRLSCAASGFTSSYYAMGWYRQAPGKERELVAAISSSGGSTYYADSVKGRFTISRDNAKNTVYLQMNSLKPEDTAVYYCAAARRERAGRQYDYWGQGTQVTVSS | low polyreactivity
HVQLVESGGGLVQAGGSLRLSCAASGSIFSGNAMGWSRQAPGKERELVAAIDWSGDSTYYADSVKGRFTLSRDNAKNTVYLQMNSLKPEDTAVYYCNTVSFSWGYSAYDYWGQGTQVTVSS | low polyreactivity
QVQLVESGGGLVQAGGSLRLSCAASGSTFEGNAMVWYRPAPGKERELVAAISSGGRTYYADSVKGRFTISRDNAKNTVYLQMNSLKPEDTAVYYCAAYVRRGFDWGQGTQVTVSS | high polyreactivity
QVQLVESGGGLVQAGGSLRLSCAASGFTFRVYAMGWNRQAPGKEREFVASITWGGGRPYYADSVKGRFTISRDNAKNTVYLQMNSLKPEDTAVYYCAAYGRLDSYVSYYYWGQGTQVTVSS | high polyreactivity
QVQLVESGGGLVQAGGSLRLSCAASGITSRQYAMGWYRQAPGKERELVAAISFSGGRTYYADSVKGRFTISRDNAKNTVYLQMNSLKPEVTAVYYCATRNRYSPRDYWGQGTQVTVSS | high polyreactivity

Sequence | polyreactivity (PSR sort gate)
QVQLVESAGGLVQAGGSLRLSCADSGSIFRYYAMGWYRQAQGQERELVAAISYSGGRTYYADSVKGRFTISRDNAKNTVYLQMNSLKPEDTAVYYCNAGAGKRGYDYWGQGTQVTVSS | low polyreactivity
EVQLVESGGGLVQPGGSLRLSCAASGYIYSRYRMGWYRQAPGKGREFVAAISGGSSTNYADSVKGRFTISRDNSKYTVYLQMNSLRAEDTAVYYCAAFKIDSDPRVYWGQGTQVTVSS | low polyreactivity
QVQLVESGGGLVQAGGSLRLSCAASGRIFGQNAMGWYRQAPGKERELVAVITSRGTRTYYADSVKGRFTISRDNAKNTVYLQMNSLKPEDTAVYYCAADVYSDNYKTWPYDYWGQGTQVTVSS | low polyreactivity
QVQLVESCGGLVQAGGSLRLSCAASGSTYAMGWYRQAPGKERELVASITSRGGSTYYADSVKGRFTISRDNAKNTVYLQMNSLKPEDTAVYYCNRVYRYPYNYWGQGTQVTVSS | high polyreactivity
QVQLVESGGGLVQAGGSLRLSCAASGFTFRHYAMGWYRQAPGKERELVARIRGGGVSTYYADSVKGRFTISRDNAKNTVYLQMNSLKPEDTAVYYCNAVYESWWGDYDYWGQGTQVTVSS | high polyreactivity
QVQLVESGGGLVQAGGSLRLSCAASGSTFVRNAMGWYRQAPGKERELVAAISRSGGRTYYADSVKGRFTISRDNAKNTVYLQMNSLKPEDTAVYYCAKKRSKPISFDYWGQGTQVTVSS | high polyreactivity
QVQLVESGGRLVQAGGSLRLSCAASGSIFGFNAMGWYRQAPGKERELVAAIIYGGSTNYADSVKGRFTISRDNEKNTVYLQMNSQKPEDTAVYYCAARLNYIRRGYWGQGTQVTVSS | high polyreactivity
QVQLVESGGRLVQAGGSLRLSCAASGFTFRYYDMRWYRPAPGKVRELVAAISSGGSTDYADSVKGRFTISRDNAKNTVYLQMNSLKPEDTAVYYCAADWWVVYTYDYWGRGTQVTVSS | low polyreactivity
QVQLVESGGCLVQAGGSLRLSCAASGSTFPIYAMGWYRQAPGKERELVARITWNGGRTYYADSVKGRFTISRDNAKNTVYLQMNSLKPEDTAVYYCAAGKIGSYHYDYWGQGTQVTVSS | high polyreactivity
QVQLVESGGGLVQAGGSLRLSCAASGITIYAYAMGWSRQAPGKERELVAAINWSGGRTFYADSVKGRFTISRDNAKNTDYLQMNSLKPEDTAVYYCAAAYTRSYSWARGYDYWGQGTQVTVSS | high polyreactivity
QVQLVESGVGLVQAGGSLRLSCAASGITFEGYAMGWYRQAPGKERELVAAIRSSGTSTYYADSVKGRFTMSRDNAKNTVYLQMNSLKPEDTAVYYCNRARSSSRYDYWGQGTQVTVSS | low polyreactivity
QVQLVESGGGLVQAGGSLRLSCAASGFTFLVYAMGWYRQAPGKERELVAGITSGGRTYYADSVKGRFTISRDNAKNTVYLQMNSLKPEDTAVYYCAASRWAYEMNYWGQGSQVTVSS | high polyreactivity
QVQLVESGGGLVQAGGSLRLSCAASGLIFRPYAMGWYRQAPGKERELVAALTSGGSTDYADSVKGRFTISRDNAKNTVYLQMNSLKPEDTAVYYCNADIYPHDGYPWQGDYDYWGQGTQVTVSS | low polyreactivity
QVQLVESGGGLVQAGGSLRLSCAASGFIFYKYAMGWYRQAPRKEREFVASISGSGGRTYYADSVKGRFTISRDNAKNTVYLQMNSLKPEDTAVYYCAVDLLRRGFPTVVTTYDYWGQGTQVTVSS | high polyreactivity
QVQLVESGGGLVQAGGSLRLSCSASGRIFDTYAMGWYRQAPGKERELVAAIRRTGGSTYYADSVKGRFTISRDNAKNTVYLQMNSLKPEDTAVYYCAAEYTVSYLRMDYWGQGTQVTVSS | low polyreactivity
QVQLVESGGGLVQAGGSLRISCAASGRNLSVYAMGWYRPAPGKERELVATITGRGGGTYYADSVKGRFTISRDNAKNTVYLQMNRLKPEDTAVYYCAADLVDFWYQITTHYDYWGQGTEVTVSS | low polyreactivity
QVQLVESGGGLVQAGGSLRLSCAASGSIFVGYVMGWYRQAPGKERELVAAISRSGGRTYYADSVKGRFTISRDNAKNTVYLQMNSLKPEDTAVYYCAADSYTQPYGSLPHKQRYEYWGQGTQVTVSS | low polyreactivity
QVQLVESGGGLVQAGGSLRLSCAASGLIFYDYAMGWYRPAPGKERELVAAITSSDSTYYADSVKGRFTISRDNAQNTVYLQMNSLKPEDTAVYYCAAKPYYFYGMDYWGQGTQVTVSS | high polyreactivity
QVQIVESGGRLVQAGCSLRLSCAASGRIFTRYAMGWYRQAPGKERELVASIRHSGGSTYYADSVKGRFTISRDNAKNTVYLQMNSLKPEDTAVYYCAARGKKGTRYNYNYWGHGTQVTVSS | high polyreactivity
QVQLVESGGGLVQAGGSLRLSCAASGSTILYYAMGWYRPAPGKERELVAAITWSGGPTYYADSVKGRFTISRDNAKMSGYLLMTSLKPEDTAVYYCNKADPWLRSTALNPGLYDYWGQGTQVTVSS | high polyreactivity
QVQLVESVGGLVQAGGSLRLSCAASGSILAVNAMGWYRQAPGKERELVAAISSRGGSTSYADSVKGRYTISRDNAKNTVYLQMNSLKPEDTAVYYCAVRAVRRLRTSVPVRFYYWGQGTQVTVSS | high polyreactivity
